Measured values taken from publication PMC9858521 (Science Advances, 2023).
Ends that are not written are not given here. * marks the point of attachment. Biotin = O=C1N[C@H]2[C@H](CS[C@H]2CCCCC(=O)*)N1

Key:
[1] = target: T1, FLAG-γ1-COP (N-terminal FLAG-tagged human γ1-COP) (human, UniProt Q9Y678 1-874); assay: co-IP
T1 sequence (looked up): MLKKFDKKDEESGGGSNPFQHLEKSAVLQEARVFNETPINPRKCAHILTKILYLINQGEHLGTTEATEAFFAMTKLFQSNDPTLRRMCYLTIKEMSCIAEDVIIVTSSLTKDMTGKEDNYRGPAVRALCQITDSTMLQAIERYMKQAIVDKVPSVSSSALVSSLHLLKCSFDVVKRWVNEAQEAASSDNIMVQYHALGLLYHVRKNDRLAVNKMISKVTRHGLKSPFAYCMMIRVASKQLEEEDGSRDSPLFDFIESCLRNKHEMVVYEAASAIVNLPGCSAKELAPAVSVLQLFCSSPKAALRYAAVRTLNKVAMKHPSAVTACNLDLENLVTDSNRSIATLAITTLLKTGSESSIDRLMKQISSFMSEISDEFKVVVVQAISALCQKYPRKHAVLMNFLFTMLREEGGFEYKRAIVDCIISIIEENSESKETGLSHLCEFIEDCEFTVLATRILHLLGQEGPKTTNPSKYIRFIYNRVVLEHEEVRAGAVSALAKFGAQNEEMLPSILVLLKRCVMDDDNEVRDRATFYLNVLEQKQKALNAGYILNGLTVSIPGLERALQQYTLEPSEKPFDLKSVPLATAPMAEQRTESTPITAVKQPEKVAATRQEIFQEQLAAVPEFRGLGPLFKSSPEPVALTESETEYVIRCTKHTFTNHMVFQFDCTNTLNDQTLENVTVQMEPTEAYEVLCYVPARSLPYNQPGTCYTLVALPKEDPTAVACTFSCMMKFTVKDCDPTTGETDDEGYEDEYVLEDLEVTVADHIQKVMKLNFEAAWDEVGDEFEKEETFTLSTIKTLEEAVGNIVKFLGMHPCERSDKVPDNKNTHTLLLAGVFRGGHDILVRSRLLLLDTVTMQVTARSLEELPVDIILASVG

[2] = target: T1, FLAG-γ1-COP (N-terminal FLAG-tagged …); assay: pull-down

B1: HA-(Δ1–67) L2-3xFLAG (domain or fragment, HPV16, UniProt P03107 68-473, looked up)
chain: GRTGYIPLGTRPPTATDTLAPVRPPLTVDPVGPSDPSIVSLVEETSFIDAGAPTSVPSIPPDVSGFSITTSTDTTPAILDINNTVTTVTTHNNPTFTDPSVLQPPTPAETGGHFTLSSSTISTHNYEEIPMDTFIVSTNPNTVTSSTPIPGSRPVARLGLYSRTTQQVKVVDPAFVTTPTKLITYDNPAYEGIDVDNTLYFSSNDNSINIAPDPDFLDIVALHRPALTSRRTGIRYSRIGNKQTLRTRSGKSIGAKVHYYYDLSTIDPAEEIELQTITPSTYTTTSHAASPTSINNGLYDIYADDFITDTSTTPVPSVPSTSLSGYIPANTTIPFGGAYNIPLVSGPDIPINITDQAPSLIPIVPGSPQYTIIADAGDFYLHPSYYMLRKRRKRLPYFFSDVSLAA
binding result [1]: binds

Biotin-TGIRYSRIGNKQTL [biotin-tagged WT HPV16 L2 peptide (residues T299 to L312)]
binding result [2]: binds
